Target: recombinant HDM2 17-125 (human) (UniProt Q00987)
Assay: fluorescence polarization, FITC-labeled peptide with HDM2 17-125

Sequence of recombinant HDM2 17-125 (human) (Q00987 17-125 limits assumed): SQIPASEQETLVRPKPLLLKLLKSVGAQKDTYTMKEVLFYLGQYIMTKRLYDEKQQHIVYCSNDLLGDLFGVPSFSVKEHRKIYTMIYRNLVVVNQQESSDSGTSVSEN

FITC-SAH-p53-8F19A (peptide) showed a Kd of over 4 µM.

From US20170081379A1
